Data reported in publication PMC9638876 (EMBO Reports, 2022).

Target: GST-tagged Gcn4 (transcription factor Gcn4) (S. cerevisiae, UniProt P03069 1-281)
Assay: pull-down

GST-tagged Gcn4 (transcription factor Gcn4), sequence (P03069 whole entry): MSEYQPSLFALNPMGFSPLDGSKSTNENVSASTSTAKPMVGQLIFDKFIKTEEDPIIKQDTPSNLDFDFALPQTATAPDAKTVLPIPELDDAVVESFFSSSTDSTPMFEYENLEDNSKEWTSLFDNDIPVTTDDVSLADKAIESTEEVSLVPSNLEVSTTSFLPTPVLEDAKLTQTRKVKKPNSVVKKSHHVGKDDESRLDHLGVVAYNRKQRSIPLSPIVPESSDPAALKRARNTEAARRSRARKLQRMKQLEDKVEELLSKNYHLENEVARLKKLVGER

B1: His-tagged Rpb9 (RNA polymerase II subunit Rpb9) (natural protein, S. cerevisiae, UniProt P27999 1-122, looked up)
chain: MTTFRFCRDCNNMLYPREDKENNRLLFECRTCSYVEEAGSPLVYRHELITNIGETAGVVQDIGSDPTLPRSDRECPKCHSRENVFFQSQQRRKDTSMVLFFVCLSCSHIFTSDQKNKRTQFS
- binding result: binds
